Experimental data reported in patent US20250197451A1 (CAPITAL MEDICAL UNIVERSITY SCHOOL OF STOMATOLOGY, published 2025).

B1: peptide 171 (peptide)
peptide: YFQQQLKPGKEDKLF
B2: peptide 172 (peptide)
peptide: LKPGKEDKLFRKKRR
B3: peptide 206 (peptide)
peptide: PPPSVSPPKCIQMER
B4: peptide 195 (peptide)
peptide: QPIKSEPESEGEEPK
B5: peptide 233 (peptide)
peptide: WIAVSALCSSSCPLL
B6: peptide 245 (peptide)
peptide: AGLDITDASLRLIIR
B7: peptide 211 (peptide)
peptide: PPDSLPLDDGAAHVM
B8: peptide 191 (peptide)
peptide: SKELNHEIQRTENSL
B9: peptide 177 (peptide)
peptide: LANKPLRRFKQEPED
B10: peptide 199 (peptide)
peptide: CERPHRFSKGLNGTP
B11: peptide 242 (peptide)
peptide: MDNRSKLRNIVELRL
B12: peptide 189 (peptide)
peptide: LPNKELSRELSKELN
B13: peptide 200 (peptide)
peptide: RFSKGLNGTPRELRH
B14: peptide 244 (peptide)
peptide: VELRLAGLDITDASL
B15: peptide 207 (peptide)
peptide: SPPKCIQMERHVIRP
B16: peptide 180 (peptide)
peptide: ELPEAPPKTRESDHS
B17: peptide 197 (peptide)
peptide: GEEPKRPPGICERPH
B18: peptide 212 (peptide)
peptide: PLDDGAAHVMHREVW
B19: peptide 243 (peptide)
peptide: KLRNIVELRLAGLDI
B20: peptide 178 (peptide)
peptide: LRRFKQEPEDELPEA
B21: peptide 232 (peptide)
peptide: LSGCSWIAVSALCSS
B22: peptide 193 (peptide)
peptide: TENSLANENQQPIKS
B23: peptide 174 (peptide)
peptide: RKKRRSWKNAEDRMA
B24: peptide 192 (peptide)
peptide: HEIQRTENSLANENQ
B25: peptide 185 (peptide)
peptide: TEGAEGPEEKKKVKM
B26: peptide 190 (peptide)
peptide: LSRELSKELNHEIQR
B27: peptide 247 (peptide)
peptide: RLIIRHMPLLSKLHL
B28: peptide 175 (peptide)
peptide: SWKNAEDRMALANKP
B29: peptide 230 (peptide)
peptide: NRLPGLRDLVLSGCS
B30: peptide 214 (peptide)
peptide: HREVWMAVFSYLSHQ
B31: peptide 20 (peptide)
peptide: YVQREALRVPLIFRE
B32: peptide 22 (peptide)
peptide: LIFREKDGLGIKMPD
B33: peptide 187 (peptide)
peptide: KKVKMRRKRRLPNKE
B34: peptide 235 (peptide)
peptide: SCPLLRTLDVQWVEG
B35: peptide 186 (peptide)
peptide: GPEEKKKVKMRRKRR
B36: peptide 239 (peptide)
peptide: MRDLLSPPTDNRPGQ
B37: peptide 218 (peptide)
peptide: MRVCRTWNRWCCDKR
B38: peptide 222 (peptide)
peptide: DLNHCKSITPLMLSG
B39: peptide 224 (peptide)
peptide: LMLSGIIRRQPVSLD
B40: peptide 19 (peptide)
peptide: DFNYEYVQREALRVP
B41: peptide 196 (peptide)
peptide: EPESEGEEPKRPPGI
B42: peptide 226 (peptide)
peptide: PVSLDLSWTNISKKQ
B43: peptide 23 (peptide)
peptide: KDGLGIKMPDPDFTV
B44: peptide 24 (peptide)
peptide: IKMPDPDFTVRDVKL
B45: peptide 188 (peptide)
peptide: RRKRRLPNKELSREL
B46: peptide 21 (peptide)
peptide: ALRVPLIFREKDGLG
B47: peptide 231 (peptide)
peptide: LRDLVLSGCSWIAVS
B48: peptide 217 (peptide)
peptide: DLCVCMRVCRTWNRW
B49: peptide 179 (peptide)
peptide: QEPEDELPEAPPKTR
B50: peptide 194 (peptide)
peptide: ANENQQPIKSEPESE
B51: peptide 221 (peptide)
peptide: LWTRIDLNHCKSITP
B52: peptide 204 (peptide)
peptide: LRSPPRVISRPPPSV
B53: peptide 236 (peptide)
peptide: RTLDVQWVEGLKDAQ
B54: peptide 234 (peptide)
peptide: ALCSSSCPLLRTLDV
B55: peptide 240 (peptide)
peptide: SPPTDNRPGQMDNRS
B56: peptide 215 (peptide)
peptide: MAVFSYLSHQDLCVC
B57: peptide 216 (peptide)
peptide: YLSHQDLCVCMRVCR
B58: peptide 176 (peptide)
peptide: EDRMALANKPLRRFK
B59: peptide 220 (peptide)
peptide: CCDKRLWTRIDLNHC
B60: peptide 173 (peptide)
peptide: EDKLFRKKRRSWKNA
B61: peptide 213 (peptide)
peptide: AAHVMHREVWMAVFS
B62: peptide 203 (peptide)
peptide: QLGPSLRSPPRVISR
B63: peptide 248 (peptide)
peptide: HMPLLSKLHLSYCNH
B64: peptide 237 (peptide)
peptide: QWVEGLKDAQMRDLL
B65: peptide 238 (peptide)
peptide: LKDAQMRDLLSPPTD

target: T1, biotin-labelled EZH2 protein (UniProt Q15910 1-746, limits assumed, biotin label (EZ-link NHS-PEO4-Biotinylation kit)); assay: KDM2B peptide array probed with biotin-EZH2 1 ug/ml, SA-HRP/ECL;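 note: Background-corrected optical density of each spot on the membrane, given as percent of the brightest spot (100%), color developed for 5 minutes; 100% is the highest background-corrected spot optical density on the membrane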
T1 construct: Probe in solution (1 ug/ml) on the KDM2B peptide microarray; also called NHS-PEO4-Biotinylation-labelled EZH2 protein; recombinant protein
T1 sequence (Q15910 whole entry): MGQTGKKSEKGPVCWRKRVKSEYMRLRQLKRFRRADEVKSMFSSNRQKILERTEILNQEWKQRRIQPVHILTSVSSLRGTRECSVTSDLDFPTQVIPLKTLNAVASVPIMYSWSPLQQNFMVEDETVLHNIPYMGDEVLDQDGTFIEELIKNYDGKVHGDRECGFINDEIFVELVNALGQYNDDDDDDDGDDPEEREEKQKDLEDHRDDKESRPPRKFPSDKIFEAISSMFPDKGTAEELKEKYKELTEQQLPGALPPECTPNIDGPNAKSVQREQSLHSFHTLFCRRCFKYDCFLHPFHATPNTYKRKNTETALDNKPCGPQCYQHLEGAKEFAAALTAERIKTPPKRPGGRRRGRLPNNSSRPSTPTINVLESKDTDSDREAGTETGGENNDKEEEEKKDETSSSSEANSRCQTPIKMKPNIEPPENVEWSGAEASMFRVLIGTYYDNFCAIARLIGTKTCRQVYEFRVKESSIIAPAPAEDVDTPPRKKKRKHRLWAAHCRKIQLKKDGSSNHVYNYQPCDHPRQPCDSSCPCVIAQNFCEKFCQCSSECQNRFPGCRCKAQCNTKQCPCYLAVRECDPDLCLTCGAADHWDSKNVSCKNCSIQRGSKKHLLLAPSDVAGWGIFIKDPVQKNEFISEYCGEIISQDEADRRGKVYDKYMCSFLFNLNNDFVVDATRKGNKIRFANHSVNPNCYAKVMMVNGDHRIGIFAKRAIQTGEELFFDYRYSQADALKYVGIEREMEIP

Row | Binder | Intensity (%)
1 | B1 | 0
2 | B2 | 0
3 | B3 | 1.29
4 | B4 | 2.29
5 | B5 | 34.8
6 | B6 | 0.31
7 | B7 | 0
8 | B8 | 0
9 | B9 | 0
10 | B10 | 0.18
11 | B11 | 0.64
12 | B12 | 0
13 | B13 | 0.91
14 | B14 | 0.9
15 | B15 | 0
16 | B16 | 0
17 | B17 | 0
18 | B18 | 0
19 | B19 | 0.92
20 | B20 | 0
21 | B21 | 95.4
22 | B22 | 0

Row | Binder | Intensity (%)
23 | B23 | 0.47
24 | B24 | 0.19
25 | B25 | 0
26 | B26 | 0.26
27 | B27 | 3.66
28 | B28 | 0
29 | B29 | 7.03
30 | B30 | 0
31 | B31 | 1.28
32 | B32 | 2.54
33 | B33 | 0.95
34 | B34 | 2.02
35 | B35 | 0
36 | B36 | 1
37 | B37 | 2.93
38 | B38 | 0
39 | B39 | 0
40 | B40 | 0
41 | B41 | 1.04
42 | B42 | 0.51
43 | B43 | 0
44 | B44 | 0

Row | Binder | Intensity (%)
45 | B45 | 0.8
46 | B46 | 21.1
47 | B47 | 100
48 | B48 | 0.19
49 | B49 | 0.39
50 | B50 | 0
51 | B51 | 4.09
52 | B52 | 1.91
53 | B53 | 2.1
54 | B54 | 3.59
55 | B55 | 0
56 | B56 | 2.82
57 | B57 | 0
58 | B58 | 0
59 | B59 | 4.32
60 | B60 | 0
61 | B61 | 11.8
62 | B62 | 0
63 | B63 | 1.15
64 | B64 | 1.18
65 | B65 | 0.62
